# Target: HLA-A*01:01 (Homo sapiens, UniProt P04439, A114D/A174V/A182V/D101N/D185E/E176A/E190D/L180R/Q94H/R68K/S129P/T187R/V100A/V91M/W191G)
# Assay: MHC binding assay: UV-ligand exchange, ELISA of stabilized MHC complexes (peptide exchange yield)
# Details: binding to HLA-A*01:01, UV-ligand exchange
# From the text: Candidate peptides for T cell based therapies according to the present invention were further tested for their MHC binding capacity (affinity). The individual peptide-MHC complexes were produced by UV-ligand exchange, where a UV-sensitive peptide is cleaved upon UV-irradiation and exchanged with the peptide of interest as analyzed. Only peptide candidates that can effectively bind and stabilize the peptide-receptive MHC molecules prevent dissociation of the MHC complexes. To determine the yield of the exchange reaction, an ELISA was performed based on the detection of the light chain (β2m) of stabilized MHC complexes. The assay was performed as generally described in Rodenko et al. (Rodenko et al., 2006)
# 96 well MAXISorp plates (NUNC) were coated over night with 2 ug/ml streptavidin in PBS at room temperature, washed 4× and blocked for 1 h at 37° C. in 2% BSA containing blocking buffer. Refolded HLA-A*02:01/MLA-001 monomers served as standards, covering the range of 15-500 ng/ml. Peptide-MHC monomers of the UV-exchange reaction were diluted 100-fold in blocking buffer. Samples were incubated for 1 h at 37° C., washed four times, incubated with 2 ug/ml HRP conjugated anti-β2m for 1 h at 37° C., washed again and detected with TMB solution that is stopped with […]. Absorption was measured at 450 nm.
row,Substance,Peptide exchange
1,1 (TLDSTRTLY; listed as Homo sapiens) [compound 1],++++ (>75% = ++++)
2,2 (VDPIGHLY; listed as Homo sapiens) [compound 2],++ (>20% = ++)
3,3 (FGTTPAAEYF; listed as Homo sapiens) [compound 3],++ (>20% = ++)
4,4 (RIEAIRAEY; listed as Homo sapiens) [compound 4],++ (>20% = ++)
5,5 (FMVIAGMPLFY; listed as Homo sapiens) [compound 5],+++ (>50 = +++)
6,6 (ARDPITFSF; listed as Homo sapiens) [compound 6],++ (>20% = ++)
7,7 (ASDDVRIEVGLY; listed as Homo sapiens) [compound 7],++++ (>75% = ++++)
8,8 (TSRAANIPGY; listed as Homo sapiens) [compound 8],+ (>10% =+)
9,9 (QLDSTLDSY; listed as Homo sapiens) [compound 9],+++ (>50 = +++)
10,13 (NTHTGTRPY; listed as Homo sapiens) [compound 13],++ (>20% = ++)
11,14 (QSEKEPGQQY; listed as Homo sapiens) [compound 14],+++ (>50 = +++)
12,15 (YLDSSKPAVY; listed as Homo sapiens) [compound 15],+++ (>50 = +++)
13,16 (NSDISIPEY; listed as Homo sapiens) [compound 16],+++ (>50 = +++)
14,17 (ASWAVLCYY; listed as Homo sapiens) [compound 17],+++ (>50 = +++)
15,20 (LSAQHRMLA; listed as Homo sapiens) [compound 20],++ (>20% = ++)
16,21 (LSSAVNPIIY; listed as Homo sapiens) [compound 21],++ (>20% = ++)
17,22 (VMDTLGLFY; listed as Homo sapiens) [compound 22],++++ (>75% = ++++)

row,Substance,Peptide exchange
1,23 (DTDPLKAAGL; listed as Homo sapiens) [compound 23],+ (>10% =+)
2,25 (AMMQEAQLAY; listed as Homo sapiens) [compound 25],+++ (>50 = +++)
3,28 (PSEVPVDSHYY; listed as Homo sapiens) [compound 28],+++ (>50 = +++)
4,29 (TLEDLDNLYNY; listed as Homo sapiens) [compound 29],+++ (>50 = +++)
5,30 (VTTDKPRAY; listed as Homo sapiens) [compound 30],++ (>20% = ++)
6,31 (VSDHLQAGMLGQY; listed as Homo sapiens) [compound 31],+++ (>50 = +++)
7,32 (GTDKQNSTLRY; listed as Homo sapiens) [compound 32],+++ (>50 = +++)
8,34 (SSWSAGENDSY; listed as Homo sapiens) [compound 34],+++ (>50 = +++)
9,35 (SWSAGENDSYS; listed as Homo sapiens) [compound 35],+ (>10% =+)
10,36 (MTSTEQSLY; listed as Homo sapiens) [compound 36],+++ (>50 = +++)
11,38 (KSWSQSSSLMY; listed as Homo sapiens) [compound 38],+++ (>50 = +++)
12,39 (WSQSSSLMY; listed as Homo sapiens) [compound 39],++++ (>75% = ++++)
13,40 (TSDQLGYSY; listed as Homo sapiens) [compound 40],+++ (>50 = +++)
14,41 (HSDLLEDSKY; listed as Homo sapiens) [compound 41],+++ (>50 = +++)
15,43 (ETEPERHLGSY; listed as Homo sapiens) [compound 43],+++ (>50 = +++)
16,44 (IPSFNEMVY; listed as Homo sapiens) [compound 44],++ (>20% = ++)
17,45 (NLDPNKIY; listed as Homo sapiens) [compound 45],+ (>10% =+)

# — patent US12195506B2, “Immunotherapy with A*01 restricted peptides and combination of peptides against cancers and related methods” (Immatics Biotechnologies GmbH, priority 2018, dated 2025)
